The values that follow come from paper PMC9597168, “ATP-dependent polymerization dynamics of bacterial actin proteins involved in Spiroplasma swimming” (Open Biology, 2022).

The target of one data set is T1, SpeMreB5 (Spiroplasma eriocheiris, UniProt A0A0H3XIQ3).
T1 construct: gene mreB5; full length, 6xHis fusion, E. coli expressed, purified as monomer
T1 sequence (A0A0H3XIQ3 1-350): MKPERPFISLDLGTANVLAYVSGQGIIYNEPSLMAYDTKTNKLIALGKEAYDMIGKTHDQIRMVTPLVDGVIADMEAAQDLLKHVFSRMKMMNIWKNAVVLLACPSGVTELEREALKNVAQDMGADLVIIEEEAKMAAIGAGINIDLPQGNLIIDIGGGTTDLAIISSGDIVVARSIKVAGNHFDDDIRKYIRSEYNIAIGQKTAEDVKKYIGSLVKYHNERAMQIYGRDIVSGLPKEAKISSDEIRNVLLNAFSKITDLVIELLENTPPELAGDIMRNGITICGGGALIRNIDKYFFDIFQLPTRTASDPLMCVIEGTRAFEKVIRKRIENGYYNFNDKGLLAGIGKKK
Description: Pi release assay (MESG coupled, A360). The data set is classed as biochemical. The conditions noted are these: 2 mM ATP, 2 mM MgCl2, pH 7.5, 100 mM KCl, about 25 °C.

For data set [1], the target named is SpeMreB5 T160K (Spiroplasma eriocheiris). Description: sedimentation assay (ultracentrifugation of polymers, SDS-PAGE of pellet and supernatant); buffer S (20 mM Tris-HCl pH 8.0, 1 M NaCl, 200 mM L-arginine-HCl pH 8.0, 5 mM DTT, 2 mM MgCl2, 2 mM ATP), 1 h, 436 000 x g for 120 min at 23°C; bulk critical concentration = x-intercept of the linear fit of pellet against total concentration.

Data set [2] concerns the target Spiroplasma eriocheiris MreB5 wild-type (Spiroplasma eriocheiris). Description: sedimentation assay (ultracentrifugation of polymers, SDS-PAGE of pellet and supernatant); buffer S with Mg-ADP instead of Mg-ATP; bulk critical concentration = x-intercept of the linear fit.
For data set [3] the target is unchanged. In words: sedimentation assay (ultracentrifugation of polymers, SDS-PAGE of pellet and supernatant); buffer S with Mg-AMPPNP instead of Mg-ATP; bulk critical concentration = x-intercept of the linear fit.
Data set [4] has the same target. In words: sedimentation assay (ultracentrifugation of polymers, SDS-PAGE of pellet and supernatant); buffer S (20 mM Tris-HCl pH 8.0, 1 M NaCl, 200 mM L-arginine-HCl pH 8.0, 5 mM DTT, 2 mM MgCl2, 2 mM ATP), 1 h, 436 000 x g for 120 min at 23°C; bulk critical concentration = x-intercept of the linear fit of pellet against total concentration.
The target in data set [5] is SpeMreB5 T160A (Spiroplasma eriocheiris). Described as above.
The target in data set [6] is SpeMreB5 D162S (Spiroplasma eriocheiris). The description is as above.
In data set [7] the target is Spiroplasma eriocheiris MreB3 wild-type (Spiroplasma eriocheiris). The data set is described as above.
Data set [8] concerns the molecule itself. In words: negative-staining electron microscopy; polymerized 3 h at room temperature in standard buffer (20 mM Tris-HCl pH 7.5, 100 mM KCl, 5 mM DTT) with 2 mM MgCl2 and 2 mM ATP; 10 µM SpeMreB3, 5 µM SpeMreB5, diluted to 3 µM before the grid.
Data set [9] concerns the molecule itself. In words: sedimentation assay (ultracentrifugation of polymers, SDS-PAGE of pellet and supernatant); buffer S (20 mM Tris-HCl pH 8.0, 1 M NaCl, 200 mM L-arginine-HCl pH 8.0, 5 mM DTT, 2 mM MgCl2, 2 mM ATP), 1 h, 436 000 x g for 120 min at 23°C; bulk critical concentration = x-intercept of the linear fit of pellet against total concentration.

Changes are numbered by the printed parent chain. In names and notes the source's numbering stands.

Turning to `Nc1ncnc2c1ncn2[C@@H]1O[C@H](COP(=O)(O)OP(=O)(O)OP(=O)(O)O)[C@@H](O)[C@H]1O` [ATP], the “Pi release assay (MESG coupled, A360)” value at SpeMreB5 is “SpeMreB5 hydrolysed ATP and released Pi over time”.
Take “SpeMreB5 T160K (from UniProt A0A0H3XIQ3 1-350) (natural protein)”: in data set [1], the critical concentration (CC) was 0 µM.
As for “Spiroplasma eriocheiris MreB5 wild-type (from UniProt A0A0H3XIQ3 1-350) (natural protein)”, the critical concentration (CC) in data set [2] turned out to be 0.39 µM; in data set [3], 0.29 µM; in data set [4], 0.14 µM.
In [5], “SpeMreB5 T160A (from UniProt A0A0H3XIQ3 1-350) (natural protein)” returned a critical concentration (CC) of 0.15 µM.
In the case of “SpeMreB5 D162S (from UniProt A0A0H3XIQ3 1-350) (natural protein)”, in data set [6], the critical concentration (CC) was determined as 0.07 µM.
Take “Spiroplasma eriocheiris MreB3 wild-type (from UniProt A0A0H3XJK5 1-352) (natural protein)”: the critical concentration (CC) in [7] is 2.8 µM.

B1: SpeMreB3 S176D (natural protein)
chain: MTITDVLKNTFNISPKPPRKFIAIDLGTTNSIAYIGGRGIIYNEASVMAYETGTKKLVALGEDARKLIGKTHDKIEIYTPLRNGAITDLRIAEEFIQHIGNRAKVQDVWKGSIVLIACPKSVTELERRAMVEMCKHLGADLVQVEEDTLMAALGAGANIFAPKGTFILDIGGGKTDAGIISAGGIVVSKSIKIAGNYIDEEILKYIRAKHTISIGVVTAEQIKKQIGSLYKGKETKKMVIFGRDVVTGMPKETEILDSEIRKLLISIFSSITQLVTDILESTPAELAGDAVMNGLLVSGGCAQISGLKEFLESYFQIPVKIAKNPQTAVIDGCIAYEKEIRDRLIEENKKNK
In the case of B1, the binding result in [8] was “binds”.

B2: SpeMreB3 D147E (natural protein)
chain: B1 chain with D147E, D176S
B2: the “critical concentration (CC)” value in data set [9] worked out at 1.26 µM.

B3: SpeMreB3 K174T/S176D (natural protein)
chain: B1 chain with K174T
Regarding B3, the “critical concentration (CC)” value in [9] turned out to be 2.15 µM.

B4: SpeMreB3 K174T (natural protein)
chain: B1 chain with K174T, D176S
With B4, the “critical concentration (CC)” value in data set [9] turned out to be 2.2 µM.
